Measured values from the nanobody polyreactivity screen of Harvey et al. (2022).

Assay: yeast display, Sf9 membrane polyspecificity reagent, FACS + sequencing; frameworks hold sequencing errors
In short: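 Synthetic nanobody libraries on Saccharomyces cerevisiae BJ5465 were galactose-induced for 36–48 hours, stained 1 hour at 4 °C with 10% biotinylated, detergent-solubilized Sf9 membrane reagent and enriched on streptavidin microbeads. FACS then separated cells into low and high (top ~1%) gates by anti-HA (expression) and streptavidin (reagent binding) fluorescence. Genes were colony-PCR amplified, MiSeq 2 × 250 sequenced and CDR-length filtered. A clone's polyreactivity label is that of its gate of origin.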

Sequence | polyreactivity (PSR sort gate)
QVQLVESGGGLVQAGASLRLSCAASGFTFYSYDMGWYRQAPGKERELVAVITERGSSTYYADSVKGRFTISRDNAKNTVYLQMNSLKPEDTAVYYCAAYSEYYGVYYWGQGTLVTVSS | low polyreactivity
QVQLVESGGGLVQAGASLRLSCAASGIIVTQYAMGWYRQAPGKESEIVATFSSGGARTYYADSVKGRFTISRDNAKNTVYLQMKSQKPEDTAVYYCDARRYRGYSPPYDYCGQGTQVTVSS | high polyreactivity
QVQLVESGGGLVQAGASLRLSCAASGITFVHYAMGWYRQAPWKEREFVAAITKGGGSTSYADSVKGRFTISRDNAKNTVYLQMNSLKPEDTAVDYCAKRYWGTKYGITARFDYWGQGTQVTVSS | high polyreactivity
QVQLVESGGGLVQAGASLRLSCAASGNILRGYAMRWYRQAPGKERELVAAINRGGGSTYYADSVKVRFTISRDNAKNTVYLQMNSLKPEDTAVYYCAARYPHRGYTFDYLGQGTQVTVSS | low polyreactivity
QVQLVESGGGLVQAGASLRLSCAASGNTFIHNAMGRYRQAPGKERELVAAINWSGGRTYYADSVKGRFTISRDNAKNTVYLQMNCLKPEDTAVYYCARGTRWTYNMYYWGQGTQVTVSS | high polyreactivity
QVQLVESGGGLVQAGASLRLSCAASGRIFSFYAMGWYRQAPGKERELVAAISSGGNTYYADSVKGRFTISRDNAKNTVYLQMNSLKPEDTAVYYCATGYRKLSSRYGYWGQGTQVTVSS | high polyreactivity
QVQLVESGGGLVQAGASLRLSCAASGRISYYYTMGWYRQAPGKERELVAAISWSGGTTYYADSVKGRFTISRDNAKNTVYLQMNSLKPDDTAVYYCAAREYYTDVHGTRRYDYWGQGTQVTVSS | low polyreactivity
QVQLVESGGGLVQAGASLRLSCAASGRTFGKYAMGWYRQAPGKERELVAAITTRVVITYYADSVKGRFTISRDTAKITVYLQMNSLKPEDSADYYCAAVSIYWGQGTQVTVSS | low polyreactivity
QVQLVESGGGLVQAGASLRLSCAASGRTFPGYAMGWSRQAPGKERELVAAITYRGGSTYYADSVKGRFTISRDNAKNTVYLQMNSLKPEDTAVYYCNARHSRSRFYYWGQGTQVTVSS | high polyreactivity
QVQLVESGGGLVQAGASLRLSCAASGSILVDNAMGSYRQAPWKERELVARITGSGGSTYYADSVKGRCTISRDNAKNTVYLQMNSLKPEDTAVYYCAARRVNAGWTYGLRGNYWGQGSQVTVSS | low polyreactivity
QVQLVESGGGLVQAGASLRLSCAASGSTFPYYAMGWYRQAPGKERELVAAISGSGGTTYYADSVKGRFTISRDNAKNTVYLQMNSLKPEDTEVYYCAVDIGVGYGYYYWGQGTQVTVSS | low polyreactivity
QVQLVESGGGLVQAGASLRLSCAPSGSIFLAYAMGWYRQAPGKEREFVAALSFTDGSTYYADSVKGRFTISRDNAKNTVYLQMNSLKPEDTAVYYCNKGASPDDYDYWGQGTQVTVSS | low polyreactivity
QVQLVESGGGLVQAGASLRLSSAASGRTFRRNAKRWYRQAAGKERELVAFITGTGSTTYYADSVKGRFTISRDNAKNTVYLQMYSLKPEDTAVYYCAASSKYQDYWGQGTQVTVSS | high polyreactivity
QVQLVESGGGLVQAGASLRLSSAASGSTFKYYTMGWYRQAPGKERELVAAISFSGARTYYADSVKGRFTISRDNAKNTVYLQMNCLIPEDTAVYYCAKASSYSRRYEYWGQGTQVTVSS | high polyreactivity
QVQLVESGGGLVQAGASLSLSCAASGFTFEDYAMGWYRQAPGKERELVAAISSRGTSTYYADSVKGRFTISRDNAKNTVYLQMNSLKREDTAVYYCNIRGWYPYGYWGQGTQVTVSS | high polyreactivity
QVQLVESGGGLVQAGASRRLSCAASGSNFASYAMGWYRQAPGKERELVAAITRRGGSTDYADSVKGRFTISRDNEKYTVDLHMNLLKPEDTAVYYCPTYSYPERTGGQRTHYYWGQGTQVTVSS | high polyreactivity
